Results taken from patent US20240368668A1, “SUBSTRATES AND BIOMARKERS OF ADAMTS7” (The Broad Institute, Inc., priority 2021, published 2024).

Target: T1, mouse ADAMTS7 (Mus musculus, UniProt Q68SA9)
T1 construct: Full-length mouse Adamts7 1-1857 (Uniprot Q68SA9, WT or E373Q catalytic mutant); expressed in transfected cells; host or cells: Human Coronary Artery Smooth Muscle Cells (HCA-SMC, Lonza), adenovirus 50 MOI
T1 sequence (Q68SA9 221-1657): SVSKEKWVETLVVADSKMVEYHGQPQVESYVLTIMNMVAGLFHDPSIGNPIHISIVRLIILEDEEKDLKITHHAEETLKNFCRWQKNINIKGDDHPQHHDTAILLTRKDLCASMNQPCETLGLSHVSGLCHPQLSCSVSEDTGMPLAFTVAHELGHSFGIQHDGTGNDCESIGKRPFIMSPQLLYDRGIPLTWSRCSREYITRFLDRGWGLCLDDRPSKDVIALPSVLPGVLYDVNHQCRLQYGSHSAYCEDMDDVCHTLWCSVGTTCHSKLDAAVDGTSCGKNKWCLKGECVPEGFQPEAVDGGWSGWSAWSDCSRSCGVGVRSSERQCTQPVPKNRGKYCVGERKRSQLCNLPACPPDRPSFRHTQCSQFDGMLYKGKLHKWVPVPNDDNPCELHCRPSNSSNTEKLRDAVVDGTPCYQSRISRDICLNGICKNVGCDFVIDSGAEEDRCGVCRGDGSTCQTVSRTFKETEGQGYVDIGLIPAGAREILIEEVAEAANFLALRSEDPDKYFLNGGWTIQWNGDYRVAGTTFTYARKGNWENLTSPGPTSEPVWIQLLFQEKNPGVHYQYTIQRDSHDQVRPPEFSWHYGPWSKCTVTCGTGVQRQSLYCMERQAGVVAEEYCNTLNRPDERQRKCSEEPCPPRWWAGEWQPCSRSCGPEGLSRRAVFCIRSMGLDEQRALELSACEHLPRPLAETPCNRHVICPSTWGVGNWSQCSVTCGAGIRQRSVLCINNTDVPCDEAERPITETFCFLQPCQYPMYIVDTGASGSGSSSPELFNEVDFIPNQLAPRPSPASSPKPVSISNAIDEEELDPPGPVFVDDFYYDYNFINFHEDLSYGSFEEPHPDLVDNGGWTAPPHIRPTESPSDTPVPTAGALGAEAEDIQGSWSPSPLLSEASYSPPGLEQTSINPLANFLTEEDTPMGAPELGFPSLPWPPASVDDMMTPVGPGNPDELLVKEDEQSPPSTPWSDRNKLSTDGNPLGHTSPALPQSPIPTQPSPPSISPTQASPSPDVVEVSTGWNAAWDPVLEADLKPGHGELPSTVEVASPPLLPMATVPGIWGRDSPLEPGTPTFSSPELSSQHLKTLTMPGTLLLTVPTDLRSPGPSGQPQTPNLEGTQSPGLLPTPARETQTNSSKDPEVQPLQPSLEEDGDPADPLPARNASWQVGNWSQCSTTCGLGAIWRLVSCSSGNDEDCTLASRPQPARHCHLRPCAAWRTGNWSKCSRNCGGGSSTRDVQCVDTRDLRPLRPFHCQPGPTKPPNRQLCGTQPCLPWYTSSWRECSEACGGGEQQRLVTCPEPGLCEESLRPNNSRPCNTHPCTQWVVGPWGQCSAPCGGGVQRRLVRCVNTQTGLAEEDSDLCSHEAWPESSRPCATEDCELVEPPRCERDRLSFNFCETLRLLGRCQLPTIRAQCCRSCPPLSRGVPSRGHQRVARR
Test: TMT10 TAILS N-terminomics, SMC2 experiment (process replicates, trypsin/AspN digest)
Type: cell-based
Settings: for logFC.mWT.over.Luc: SMC2_TAILS HC, log fold change of N-terminal peptide, Ad-mADAMTS7 WT over Luc
How it was run: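 Full-length mouse ADAMTS7 (WT or E373Q mutant, C-terminal 3xFLAG) or luciferase was transduced via adenovirus, 50 MOI, into HCA-SMC (SMC1, SMC2) or HUVEC. SMC1: pooled media, technical triplicates 400 ug; SMC2: process triplicates 300 ug; HUVEC: process triplicates 200 ug, bFGF2 10 ng/ml.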

logFC.mWT.over.Luc	logFC.mWT.over.Lux (log fold change, ADAMTS7 WT over luciferase)	Substance
1.01	–	VIM_322 (QVQSLTCEV; listed as Homo sapiens)
–	2.91	VIM_433 (LVDTHSKR; listed as Homo sapiens)
2.79	–	ZSCAN4_25 (FQQSQGPAVQR; listed as Homo sapiens)
